Literature values, collected in patent US20100298348A1, “Method of Decreasing Ubiquitylated Protein Levels” (priority 2009, published 2010).

Tests used:
gamma secretase = conditions: in vivo; cited from earlier work
mouse model of AD = conditions: cited from earlier work
hippocampal slices = conditions: cited from earlier work

In the case of `C[C@@H](C(=O)O)c1ccc(-c2ccccc2)c(F)c1` [Flurizan], the “outcome of Phase III clinical trial” value (gamma secretase) is given as “failed”.

B1: Uch-L1: ubiquitin hydrolase (protein, UniProt P09936 1-220, looked up)
Ubiquitin carboxyl-terminal …: MQLKPMEINPEMLNKVLSRLGVAGQWRFVDVLGLEEESLGSVPAPACALLLLFPLTAQHENFRKKQIEELKGQEVSPKVYFMKQTIGNSCGTIGLIHAVANNQDKLGFEDGSVLKQFLSETEKMSPEDRAKCFEKNEAIQAAHDAVAQEGQCRVDDKVNFHFILFNNVDGHLYELDGRMPFPVNHGASSEDTLLKDAAKVCREFTEREQGEVRFSAVALC
In the case of B1, the learning and memory (mouse model of AD) is listed as “improves” and the “Aβ-induced decrease in synaptic function” value (hippocampal slices) is listed as “reverses”.
